In publication PMC12803513 one finds percentage of Pfdn5 in the pellet fraction data, which are given here for one molecule.

In the assay the target is microtubules (polymers of alpha- and beta-tubulin) of Drosophila head lysate (D. melanogaster (endogenous in adult fly heads)) (UniProt P06603). Nature of the assay: co-sedimentation; in vivo microtubule-binding assay: 50 wild-type fly heads homogenised in Buffer-C+ (50 mM HEPES pH 7.1, 1.0 mM MgCl2, 1.0 mM EGTA, protease and phosphatase inhibitors) with 20 uM Taxol; 100,000 x g for 30 min through a 50% sucrose cushion; pellet blotted with anti-Pfdn5 and anti-ace-tubulin.
Sequence of UniProt P06603 (P06603 whole entry, chain 1 of 2): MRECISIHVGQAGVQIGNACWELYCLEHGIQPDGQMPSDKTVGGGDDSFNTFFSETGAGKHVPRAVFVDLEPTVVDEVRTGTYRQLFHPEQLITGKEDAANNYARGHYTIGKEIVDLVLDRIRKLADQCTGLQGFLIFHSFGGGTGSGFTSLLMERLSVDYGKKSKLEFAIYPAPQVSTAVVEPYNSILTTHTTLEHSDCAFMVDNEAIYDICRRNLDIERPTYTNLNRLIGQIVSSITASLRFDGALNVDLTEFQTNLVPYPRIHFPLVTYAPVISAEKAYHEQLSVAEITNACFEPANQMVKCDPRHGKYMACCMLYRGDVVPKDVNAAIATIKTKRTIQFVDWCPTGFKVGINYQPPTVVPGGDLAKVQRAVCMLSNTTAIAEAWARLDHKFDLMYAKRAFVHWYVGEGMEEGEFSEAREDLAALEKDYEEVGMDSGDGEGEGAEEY
Sequence of UniProt P06603 (Q24560 whole entry, chain 2 of 2, further chain): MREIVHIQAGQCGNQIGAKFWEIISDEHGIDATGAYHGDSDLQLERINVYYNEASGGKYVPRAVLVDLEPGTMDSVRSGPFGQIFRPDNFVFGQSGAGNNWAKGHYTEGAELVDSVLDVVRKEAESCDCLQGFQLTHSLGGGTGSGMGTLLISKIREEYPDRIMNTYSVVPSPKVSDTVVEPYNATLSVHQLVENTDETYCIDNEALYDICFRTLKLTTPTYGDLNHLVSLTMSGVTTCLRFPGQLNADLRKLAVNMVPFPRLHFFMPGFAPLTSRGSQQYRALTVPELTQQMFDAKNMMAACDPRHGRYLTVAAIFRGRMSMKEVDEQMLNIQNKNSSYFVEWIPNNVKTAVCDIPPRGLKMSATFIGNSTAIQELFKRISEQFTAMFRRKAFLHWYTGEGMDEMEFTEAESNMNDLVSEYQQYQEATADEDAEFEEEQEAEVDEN

B1: Prefoldin 5 (natural protein)
chain: MAATPSAPAKSEMIDLTKLSPEQLIQIKQEFEQEITNVQDSLSTLHGCQAKYAGSKEALGTFQPNWENRQILVPLTSSMYVPGRVKDLNRFVIDIGTGYYIEKDLEGSKDYFKRRVEYVQEQIEKIEKIHLQKTRFYNSVMSVLEMKQAAAAKLQSQQQSQPAVTQSS
In the case of B1, the percentage of Pfdn5 in the pellet fraction worked out at 36.7%.
